Laboratory results published in the RNAGym collection of RNA variant scans (doi:10.1073/pnas.2313332121).

B1: TPR t1 (parent)
chain: GACCAAUCUGCCCUCAGAGCUCGAGAACAUCUUCGGAUGCAGAGGAGGCAGGCUUCGGUGGCGCGAUAGCGCCAACGUCCUCAACCUCCAAUGCAUCCCACCACAUGAUGAUGCCUGAAGAGCCUUGGUUUUUUG

Variants of: B1
Experiment: polymerase ribozyme fitness, log enrichment relative to wild type (log ratio); higher = more active; in vitro selection for triplet polymerase activity
Procedure, shortened: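 Fitness compares each genotype's enrichment to that of the wild type on a logarithmic scale, averaging replicates with inverse-variance weights. The logarithm is base 2. Enrichment came from Illumina sequencing of input and output libraries after one triplicate round of in vitro selection, which included frozen incubation at −7 °C, of PCR-built, transcribed mutant libraries of each subunit of a heterodimeric triplet polymerase ribozyme. Only genotypes with ≥10 input reads and ≥1 read per output were kept.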

First: U87C C89G
Second: C88A C115U
The “polymerase ribozyme fitness (log ratio)” value of the first is lower: -1.1 for the first, -0.599 for the second.

Going from C94U C114U to U92C G120U, the “polymerase ribozyme fitness (log ratio)” value rises from -2.58 to 0.184.

Compared with C94U G107A, G93C U106A is higher in “polymerase ribozyme fitness (log ratio)” value: -4.87 for the first, -0.61 for the second.

First: G93U C98U G120C
Second: C88A C101U
The “polymerase ribozyme fitness (log ratio)” value of the first is lower: -3.66 for the first, -0.505 for the second.

Going from C88G G117C to C82U C115A, the “polymerase ribozyme fitness (log ratio)” value rises from -4.47 to -0.595.

First: C82U C115U
Second: C86G G93A G113C
The “polymerase ribozyme fitness (log ratio)” value of the first is higher: -1.02 for the first, -4.01 for the second.

Going from C89G G127U to A84C C89A G113A, the “polymerase ribozyme fitness (log ratio)” value rises from -2.9 to -2.63.

First: G93A G135C
Second: C86U G93A C101G G122A
The “polymerase ribozyme fitness (log ratio)” value of the first is higher: -1 for the first, -3.73 for the second.

Compared with A91U U132C, C86G G128A is lower in “polymerase ribozyme fitness (log ratio)” value: -1.79 for the first, -2.15 for the second.

Going from U87G U106G to C85A G122A, the “polymerase ribozyme fitness (log ratio)” value rises from -1.41 to -1.14.

First: A95G C98G G120U
Second: A83C C89U A95C
The “polymerase ribozyme fitness (log ratio)” value of the first is lower: -6.09 for the first, -0.794 for the second.

First: C94A G113A
Second: A84U G93A C115G
The “polymerase ribozyme fitness (log ratio)” value of the first is higher: -0.888 for the first, -2.08 for the second.

First: U87A U106G
Second: C88A U106A U109A U126A U131G
The “polymerase ribozyme fitness (log ratio)” value of the first is higher: -1.35 for the first, -5.92 for the second.

Going from C85U G113C C114A to A84G C86A U96C G113A, the “polymerase ribozyme fitness (log ratio)” value rises from -5.96 to -2.94.

Compared with C88G G107U A111C A121U U125A, A90C C97A C99G G113A G122U is lower in “polymerase ribozyme fitness (log ratio)” value: -3.56 for the first, -7.3 for the second.

Compared with C88U C89A A121U G122A, C94A G127U U134G G135U is lower in “polymerase ribozyme fitness (log ratio)” value: -1.15 for the first, -2.31 for the second.

Compared with C89A A121G, C85G G128A is lower in “polymerase ribozyme fitness (log ratio)” value: 1.44 for the first, -2.55 for the second.

Going from A83U C114A to U92C A118U, the “polymerase ribozyme fitness (log ratio)” value rises from -1.1 to -0.718.

First: G93C A105U C114G A119G
Second: C88G G107A U130C
The “polymerase ribozyme fitness (log ratio)” value of the first is lower: -7.51 for the first, -6.86 for the second.

Going from A91G G117U to C89G A90G G127C, the “polymerase ribozyme fitness (log ratio)” value rises from -3.4 to -2.22.

Compared with A91C U133A, C82U U112A is higher in “polymerase ribozyme fitness (log ratio)” value: -0.906 for the first, 1.08 for the second.

Going from C89G C94G to U96A G113U, the “polymerase ribozyme fitness (log ratio)” value falls from -3.06 to -3.61.

First: G93A C114A G122A U131A
Second: A91U A111C
The “polymerase ribozyme fitness (log ratio)” value of the first is lower: -3.27 for the first, -2.44 for the second.

A83G G120C and A83G G120A are within 0.2 log units of each other in “polymerase ribozyme fitness (log ratio)” value: 0.655 for the first, 0.774 for the second.

Going from C89U C104A to A90U U133G, the “polymerase ribozyme fitness (log ratio)” value rises from -1.84 to -1.46.

Going from A83C C114G U132A to U92C U125G, the “polymerase ribozyme fitness (log ratio)” value rises from -2.52 to -1.76.

First: C89A A111U G113A
Second: C85U G113U
The “polymerase ribozyme fitness (log ratio)” value of the first is lower: -5.69 for the first, -3.63 for the second.

First: A91C C114U G127A
Second: U87C A95U C102A C124A G128C
The “polymerase ribozyme fitness (log ratio)” value of the first is lower: -4.1 for the first, -3.08 for the second.

Compared with U87C U126G, C85G A111C is lower in “polymerase ribozyme fitness (log ratio)” value: -1.22 for the first, -3.12 for the second.

First: G93C C104A A118U
Second: C82U U96G
The “polymerase ribozyme fitness (log ratio)” value of the first is lower: -1.82 for the first, -1.12 for the second.

A90G C114A and A90C G120U are within 0.2 log units of each other in “polymerase ribozyme fitness (log ratio)” value: -1.4 for the first, -1.31 for the second.

Compared with C85U G110C C115U A121G, A83U C88A G128C is higher in “polymerase ribozyme fitness (log ratio)” value: -6.18 for the first, -3.29 for the second.

Going from A84U G110C U130C to A84G G120A, the “polymerase ribozyme fitness (log ratio)” value rises from -4.16 to -0.185.

First: A90U G113A G128A
Second: A90U G117C
The “polymerase ribozyme fitness (log ratio)” value of the first is lower: -3.47 for the first, -1.43 for the second.

Compared with C88G G110C, C94A G128A U129G is higher in “polymerase ribozyme fitness (log ratio)” value: -5.26 for the first, -3.11 for the second.

First: G93U G110C
Second: C85G A118U U126G
The “polymerase ribozyme fitness (log ratio)” value of the first is lower: -4.54 for the first, -3.39 for the second.

Compared with C85U U130A, C82U G120U is higher in “polymerase ribozyme fitness (log ratio)” value: -1.86 for the first, 0.312 for the second.

Going from C86U C124A to C85U C98U, the “polymerase ribozyme fitness (log ratio)” value falls from 1.32 to -1.57.

A84U C88U G93A G128A and A91G G93C G120C are within 0.2 log units of each other in “polymerase ribozyme fitness (log ratio)” value: -2 for the first, -2.18 for the second.

First: C82U G127U
Second: G93A A111U G122C
The “polymerase ribozyme fitness (log ratio)” value of the first is higher: -0.724 for the first, -4.63 for the second.

Going from C82U A95G to C94G G113A, the “polymerase ribozyme fitness (log ratio)” value falls from 0.358 to -3.13.

For G93A U130G, the “polymerase ribozyme fitness (log ratio)” value was -1.45.
